The results in this text go back to patent EP0574512B1.

Assay [1] concerns the target MHC class II antigen on the Raji B cell line. Kind of assay: cell-based or functional assay.
The target in assay [2] is HIV-1 envelope gp120/gp41 complex (HIV-1). The experiment in a line: cell-based or functional assay.

The substance CD4:ζ chimeric receptor gave a cytolysis (51Cr release) in assay [1] of 5 % cytolysis. In assay [2], the mean effector to target ratio for 50% release (51Cr release cytolysis by CTL) (effector to target ratio) came out at 1.9.
